Data reported in patent US20140087995A1 (published 2014).
Numbered stars: 1 amine (or outer) side, 2 acyl side, 3 side chain; on linkers, the order of the positions; unused ones are H or OH. Bridge positions count the residues as written; N and C are the ends. Side chains are listed from the residue outwards. Ends that are not written are not given here. * marks the point of attachment. C20 diacid = O=C(O)CCCCCCCCCCCCCCCCCCC(=O)*; γGlu = O=C(O)[C@H](CCC(=O)[*:2])N[*:1]

T1: human calcitonin receptor (human, UniProt P30988 25-474)
T1 sequence (looked up): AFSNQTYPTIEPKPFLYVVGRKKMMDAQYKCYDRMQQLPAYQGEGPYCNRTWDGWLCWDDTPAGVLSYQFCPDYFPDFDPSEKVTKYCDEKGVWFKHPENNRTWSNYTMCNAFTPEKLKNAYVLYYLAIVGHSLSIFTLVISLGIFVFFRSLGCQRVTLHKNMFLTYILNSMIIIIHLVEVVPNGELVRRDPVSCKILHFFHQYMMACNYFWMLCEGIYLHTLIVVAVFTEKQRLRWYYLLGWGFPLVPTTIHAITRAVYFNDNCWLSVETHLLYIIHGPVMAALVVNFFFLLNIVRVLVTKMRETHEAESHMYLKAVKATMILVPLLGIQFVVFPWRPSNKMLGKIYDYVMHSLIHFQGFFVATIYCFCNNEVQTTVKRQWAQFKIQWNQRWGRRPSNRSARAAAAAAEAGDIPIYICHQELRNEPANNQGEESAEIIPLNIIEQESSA

T2: human amylin receptor (amylin 3(a) receptor: human calcitonin receptor with RAMP-3) (human, UniProt P30988 25-474; O60896 24-148, limits assumed)
T2 construct: whole, on cells; Whole cells in the luciferase assay (Assay II a); also called hAmylin-R; hAmylinR
T2 sequence (looked up) 1: T1 sequence (looked up)
T2 sequence (looked up) 2: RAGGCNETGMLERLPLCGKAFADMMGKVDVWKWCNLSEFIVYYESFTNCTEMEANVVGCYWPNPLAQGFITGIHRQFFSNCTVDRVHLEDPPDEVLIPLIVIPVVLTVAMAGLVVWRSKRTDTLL

B1: N^α1-[(4S)-4-carboxy-4-(19-carboxynonadecanoylamino)butanoyl]-[Glu14,Arg17,Pro21,Pro27,Pro29]-h-amylin (peptide)
peptide: {C20 diacid-γGlu}-KCNTATCATQRLAEFLRHSSPNFGAIPSPTNVGSNTY-NH2
modifications: disulfide 2-7
SMILES: CC[C@H](C)[C@H](NC(=O)[C@H](C)NC(=O)CNC(=O)[C@H](Cc1ccccc1)NC(=O)[C@H](CC(N)=O)NC(=O)[C@@H]1CCCN1C(=O)[C@H](CO)NC(=O)[C@H](CO)NC(=O)[C@H](Cc1c[nH]cn1)NC(=O)[C@H](CCCNC(=N)N)NC(=O)[C@H](CC(C)C)NC(=O)[C@H](Cc1ccccc1)NC(=O)[C@H](CCC(=O)O)NC(=O)[C@H](C)NC(=O)[C@H](CC(C)C)NC(=O)[C@H](CCCNC(=N)N)NC(=O)[C@H](CCC(N)=O)NC(=O)[C@@H](NC(=O)[C@H](C)NC(=O)[C@@H]1CSSC[C@H](NC(=O)[C@H](CCCCN)NC(=O)CC[C@H](NC(=O)CCCCCCCCCCCCCCCCCCC(=O)O)C(=O)O)C(=O)N[C@@H](CC(N)=O)C(=O)N[C@@H]([C@@H](C)O)C(=O)N[C@@H](C)C(=O)N[C@@H]([C@@H](C)O)C(=O)N1)[C@@H](C)O)C(=O)N1CCC[C@H]1C(=O)N[C@@H](CO)C(=O)N1CCC[C@H]1C(=O)N[C@H](C(=O)N[C@@H](CC(N)=O)C(=O)N[C@H](C(=O)NCC(=O)N[C@@H](CO)C(=O)N[C@@H](CC(N)=O)C(=O)N[C@H](C(=O)N[C@@H](Cc1ccc(O)cc1)C(N)=O)[C@@H](C)O)C(C)C)[C@@H](C)O
notes: also called compound 37
B2: N^α1N^α1-[(4S)-4-carboxy-4-(19-carboxynonadecanoylamino)butanoyl]-[Glu14,Arg17,Pro21,Pro27,Glu35]-h-amylin (peptide)
peptide: {C20 diacid-γGlu}-KCNTATCATQRLAEFLRHSSPNFGAIPSSTNVGSETY-NH2
modifications: disulfide 2-7
SMILES: CC[C@H](C)[C@H](NC(=O)[C@H](C)NC(=O)CNC(=O)[C@H](Cc1ccccc1)NC(=O)[C@H](CC(N)=O)NC(=O)[C@@H]1CCCN1C(=O)[C@H](CO)NC(=O)[C@H](CO)NC(=O)[C@H](Cc1c[nH]cn1)NC(=O)[C@H](CCCNC(=N)N)NC(=O)[C@H](CC(C)C)NC(=O)[C@H](Cc1ccccc1)NC(=O)[C@H](CCC(=O)O)NC(=O)[C@H](C)NC(=O)[C@H](CC(C)C)NC(=O)[C@H](CCCNC(=N)N)NC(=O)[C@H](CCC(N)=O)NC(=O)[C@@H](NC(=O)[C@H](C)NC(=O)[C@@H]1CSSC[C@H](NC(=O)[C@H](CCCCN)NC(=O)CC[C@H](NC(=O)CCCCCCCCCCCCCCCCCCC(=O)O)C(=O)O)C(=O)N[C@@H](CC(N)=O)C(=O)N[C@@H]([C@@H](C)O)C(=O)N[C@@H](C)C(=O)N[C@@H]([C@@H](C)O)C(=O)N1)[C@@H](C)O)C(=O)N1CCC[C@H]1C(=O)N[C@@H](CO)C(=O)N[C@@H](CO)C(=O)N[C@H](C(=O)N[C@@H](CC(N)=O)C(=O)N[C@H](C(=O)NCC(=O)N[C@@H](CO)C(=O)N[C@@H](CCC(=O)O)C(=O)N[C@H](C(=O)N[C@@H](Cc1ccc(O)cc1)C(N)=O)[C@@H](C)O)C(C)C)[C@@H](C)O
notes: also called compound 22
B3: N^α1-[(4S)-4-carboxy-4-[[(4S)-4-carboxy-4-(19-carboxynonadecanoylamino)butanoyl]amino]butanoyl]-[Glu14,Arg17,Pro21,Pro27,Pro37]-h-amylin (peptide)
peptide: {C20 diacid-γGlu-γGlu}-KCNTATCATQRLAEFLRHSSPNFGAIPSSTNVGSNTP-NH2
modifications: disulfide 2-7
SMILES: CC[C@H](C)[C@H](NC(=O)[C@H](C)NC(=O)CNC(=O)[C@H](Cc1ccccc1)NC(=O)[C@H](CC(N)=O)NC(=O)[C@@H]1CCCN1C(=O)[C@H](CO)NC(=O)[C@H](CO)NC(=O)[C@H](Cc1c[nH]cn1)NC(=O)[C@H](CCCNC(=N)N)NC(=O)[C@H](CC(C)C)NC(=O)[C@H](Cc1ccccc1)NC(=O)[C@H](CCC(=O)O)NC(=O)[C@H](C)NC(=O)[C@H](CC(C)C)NC(=O)[C@H](CCCNC(=N)N)NC(=O)[C@H](CCC(N)=O)NC(=O)[C@@H](NC(=O)[C@H](C)NC(=O)[C@@H]1CSSC[C@H](NC(=O)[C@H](CCCCN)NC(=O)CC[C@H](NC(=O)CC[C@H](NC(=O)CCCCCCCCCCCCCCCCCCC(=O)O)C(=O)O)C(=O)O)C(=O)N[C@@H](CC(N)=O)C(=O)N[C@@H]([C@@H](C)O)C(=O)N[C@@H](C)C(=O)N[C@@H]([C@@H](C)O)C(=O)N1)[C@@H](C)O)C(=O)N1CCC[C@H]1C(=O)N[C@@H](CO)C(=O)N[C@@H](CO)C(=O)N[C@H](C(=O)N[C@@H](CC(N)=O)C(=O)N[C@H](C(=O)NCC(=O)N[C@@H](CO)C(=O)N[C@@H](CC(N)=O)C(=O)N[C@H](C(=O)N1CCC[C@H]1C(N)=O)[C@@H](C)O)C(C)C)[C@@H](C)O
notes: also called compound 14
B4: N^ε1-[(4S)-4-carboxy-4-(19-carboxynonadecanoylamino)butanoyl]-[Asp14,Arg17,Pro21,Pro27,Pro34,Glu35]-h-amylin (peptide)
peptide: K([γGlu-C20 diacid])CNTATCATQRLADFLRHSSPNFGAIPSSTNVGPETY-NH2
modifications: disulfide 2-7; N-terminus assumed
SMILES: CC[C@H](C)[C@H](NC(=O)[C@H](C)NC(=O)CNC(=O)[C@H](Cc1ccccc1)NC(=O)[C@H](CC(N)=O)NC(=O)[C@@H]1CCCN1C(=O)[C@H](CO)NC(=O)[C@H](CO)NC(=O)[C@H](Cc1c[nH]cn1)NC(=O)[C@H](CCCNC(=N)N)NC(=O)[C@H](CC(C)C)NC(=O)[C@H](Cc1ccccc1)NC(=O)[C@H](CC(=O)O)NC(=O)[C@H](C)NC(=O)[C@H](CC(C)C)NC(=O)[C@H](CCCNC(=N)N)NC(=O)[C@H](CCC(N)=O)NC(=O)[C@@H](NC(=O)[C@H](C)NC(=O)[C@@H]1CSSC[C@H](NC(=O)[C@@H](N)CCCCNC(=O)CC[C@H](NC(=O)CCCCCCCCCCCCCCCCCCC(=O)O)C(=O)O)C(=O)N[C@@H](CC(N)=O)C(=O)N[C@@H]([C@@H](C)O)C(=O)N[C@@H](C)C(=O)N[C@@H]([C@@H](C)O)C(=O)N1)[C@@H](C)O)C(=O)N1CCC[C@H]1C(=O)N[C@@H](CO)C(=O)N[C@@H](CO)C(=O)N[C@H](C(=O)N[C@@H](CC(N)=O)C(=O)N[C@H](C(=O)NCC(=O)N1CCC[C@H]1C(=O)N[C@@H](CCC(=O)O)C(=O)N[C@H](C(=O)N[C@@H](Cc1ccc(O)cc1)C(N)=O)[C@@H](C)O)C(C)C)[C@@H](C)O
B5: N^ε1-[(4S)-4-carboxy-4-(19-carboxynonadecanoylamino)butanoyl]-[Ala14,Arg17,Pro21,Pro27,Pro34]-h-amylin (peptide)
peptide: K([γGlu-C20 diacid])CNTATCATQRLAAFLRHSSPNFGAIPSSTNVGPNTY-NH2
modifications: disulfide 2-7; N-terminus assumed
SMILES: CC[C@H](C)[C@H](NC(=O)[C@H](C)NC(=O)CNC(=O)[C@H](Cc1ccccc1)NC(=O)[C@H](CC(N)=O)NC(=O)[C@@H]1CCCN1C(=O)[C@H](CO)NC(=O)[C@H](CO)NC(=O)[C@H](Cc1c[nH]cn1)NC(=O)[C@H](CCCNC(=N)N)NC(=O)[C@H](CC(C)C)NC(=O)[C@H](Cc1ccccc1)NC(=O)[C@H](C)NC(=O)[C@H](C)NC(=O)[C@H](CC(C)C)NC(=O)[C@H](CCCNC(=N)N)NC(=O)[C@H](CCC(N)=O)NC(=O)[C@@H](NC(=O)[C@H](C)NC(=O)[C@@H]1CSSC[C@H](NC(=O)[C@@H](N)CCCCNC(=O)CC[C@H](NC(=O)CCCCCCCCCCCCCCCCCCC(=O)O)C(=O)O)C(=O)N[C@@H](CC(N)=O)C(=O)N[C@@H]([C@@H](C)O)C(=O)N[C@@H](C)C(=O)N[C@@H]([C@@H](C)O)C(=O)N1)[C@@H](C)O)C(=O)N1CCC[C@H]1C(=O)N[C@@H](CO)C(=O)N[C@@H](CO)C(=O)N[C@H](C(=O)N[C@@H](CC(N)=O)C(=O)N[C@H](C(=O)NCC(=O)N1CCC[C@H]1C(=O)N[C@@H](CC(N)=O)C(=O)N[C@H](C(=O)N[C@@H](Cc1ccc(O)cc1)C(N)=O)[C@@H](C)O)C(C)C)[C@@H](C)O
notes: also called compound 94

Each binder was assayed against T1, human calcitonin receptor (assay: cell-based or functional assay).

Compared with B1, B2 is lower in “Ratio hCT/hAmylin funct.” value: 4 ratio for the first, 3.8 ratio for the second.

Compared with B3, {C20 diacid-γGlu}-KCNTATCATQRLAEFLRHSSPNFGAIPSSTNVGSNTP-NH2 (disulfide 2-7, also called compound 8) is lower in “Ratio hCT/hAmylin funct.” value: 1.6 ratio for the first, 1.1 ratio for the second.

Going from B4 to B5, the “Ratio hCT/hAmylin funct.” value rises from 3.9 ratio to 4.5 ratio.

B4 was tested, and the “hCTR funct. EC50 (pM)” value was 1120 pM.

The binders below were run against T2, human amylin receptor (amylin 3(a) …) (assay: SPA competition binding on membranes of BHK cells with human calcitonin receptor + RAMP-3; displacement of 125I-rat amylin (Assay V)).
Method: The binding assay was performed using scintillation proximity assay (SPA) beads (RPNQ0001) from PerkinElmer and cell membranes from the Amylin 3(a)/CRE-luc cells (as described in Assay (II)) were used. Membranes were prepared in the following way; the cells were rinsed with PBS and incubated with Versene for approximately 5 min before harvesting. The cells were flushed with PBS and the cell-suspension was centrifuged for 5 min at 1000 rpm. Cells were homogenized (ultrathurrax) in a buffer containing 20 mM Na-HEPES and 10 mM EDTA (pH 7.4) and centrifuged at 20.000 rpm for 15 min. The resulting pellet was resuspended, homogenized and centrifuged (20.000 rpm, 15 min) in a buffer containing 20 mM Na-HEPES and 0.1 mM EDTA (pH 7.4, buffer 2). The resulting pellet was resuspended in buffer 2 and protein concentration was measured (BCA protein Assay, Pierce). The homogenate was kept cold during the whole procedure. The membranes were kept at −80° C. until use. The assay was performed in a 384 well Optiplate (PerkinElmer) in a total volume of 40 ul. Membranes were mixed with SPA beads. Final concentration of membranes 35 ng/μL final and SPA beads was 0.05 mg/well. Test-compounds were dissolved in DMSO and further diluted in assay buffer (50 mM Hepes, pH 7.4, 1 mM CaCl2, 5 mM MgCl₂, 0.1% OA and 0.02% Tween20). […] The final mixture was incubated with shaking at 400 rpm for 120 min at 25° C. prior to centrifugation (1500 rpm, 10 min). Samples were analyzed on TopCounter™ (Packard). The IC₅₀ was calculated using (one site binding competition analysis) GraphPad Prism5 as a measure of receptor affinity.

B1 and B2 are within 1.5-fold of each other in IC50: 0.97 nM for the first, 0.794 nM for the second.

Compared with B3, {C20 diacid-γGlu}-KCNTATCATQRLAEFLRHSSPNFGAIPSSTNVGSNTP-NH2 (disulfide 2-7, also called compound 8) is 2.7-fold lower in IC50: 0.196 nM for the first, 0.072 nM for the second.

B4 and B5 are within 1.5-fold of each other in IC50: 0.196 nM for the first, 0.148 nM for the second.
